The text below walks through data of paper PMC12329595, “Engineered bacteriophytochrome heterodimers for research and applications” (The Journal of Biological Chemistry, 2025).

Series [1] concerns the target T1, DrBphPRE (full-length DrBphP E306R/R310E) (Deinococcus radiodurans strain R1, UniProt Q9RZA4 1-755, E306R | R310E, biliverdin IXα covalently linked to a conserved cysteine (holoprotein)).
T1 construct: Deinococcus radiodurans strain R1 bacteriophytochrome DrBphP, full length; source: E. coli BL21 (DE3), purified (Ni-NTA, SEC)
T1 sequence: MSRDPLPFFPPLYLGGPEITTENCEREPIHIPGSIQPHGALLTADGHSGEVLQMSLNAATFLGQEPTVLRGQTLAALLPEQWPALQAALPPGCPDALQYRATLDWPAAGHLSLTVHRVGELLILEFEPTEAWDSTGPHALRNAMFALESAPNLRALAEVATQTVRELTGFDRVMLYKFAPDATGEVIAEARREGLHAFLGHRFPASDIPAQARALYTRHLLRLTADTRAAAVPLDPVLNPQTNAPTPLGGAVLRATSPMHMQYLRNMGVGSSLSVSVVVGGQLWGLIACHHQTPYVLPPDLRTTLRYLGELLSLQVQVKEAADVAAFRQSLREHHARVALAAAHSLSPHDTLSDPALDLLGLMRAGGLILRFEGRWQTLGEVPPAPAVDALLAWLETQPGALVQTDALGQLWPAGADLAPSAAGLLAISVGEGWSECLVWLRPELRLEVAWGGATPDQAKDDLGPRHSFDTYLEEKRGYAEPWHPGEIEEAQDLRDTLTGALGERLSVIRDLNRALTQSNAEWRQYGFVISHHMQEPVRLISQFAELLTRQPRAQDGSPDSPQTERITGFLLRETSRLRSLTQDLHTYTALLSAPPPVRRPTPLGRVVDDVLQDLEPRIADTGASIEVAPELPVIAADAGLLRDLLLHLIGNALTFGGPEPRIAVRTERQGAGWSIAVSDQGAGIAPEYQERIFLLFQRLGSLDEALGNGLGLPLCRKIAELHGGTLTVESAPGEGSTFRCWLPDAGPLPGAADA
Put plainly: SEC; HPLC, bioZen 1.8 μm SEC-3 column, 30 mM Tris/HCl, 150 mM NaCl, pH 8.0 with 10% acetonitrile, 25 °C; full-length DrBphP and DrF1 variants and mixtures. To be noted: both partners purified. For orientation: Size exclusion chromatography separates by hydrodynamic size, large species first.

Series [2] concerns the molecule itself. The description is as above.

B1: DrBphPER (full-length DrBphP R141E/E148R) (natural protein)
chain: MSRDPLPFFPPLYLGGPEITTENCEREPIHIPGSIQPHGALLTADGHSGEVLQMSLNAATFLGQEPTVLRGQTLAALLPEQWPALQAALPPGCPDALQYRATLDWPAAGHLSLTVHRVGELLILEFEPTEAWDSTGPHALENAMFALRSAPNLRALAEVATQTVRELTGFDRVMLYKFAPDATGEVIAEARREGLHAFLGHRFPASDIPAQARALYTRHLLRLTADTRAAAVPLDPVLNPQTNAPTPLGGAVLRATSPMHMQYLRNMGVGSSLSVSVVVGGQLWGLIACHHQTPYVLPPDLRTTLEYLGRLLSLQVQVKEAADVAAFRQSLREHHARVALAAAHSLSPHDTLSDPALDLLGLMRAGGLILRFEGRWQTLGEVPPAPAVDALLAWLETQPGALVQTDALGQLWPAGADLAPSAAGLLAISVGEGWSECLVWLRPELRLEVAWGGATPDQAKDDLGPRHSFDTYLEEKRGYAEPWHPGEIEEAQDLRDTLTGALGERLSVIRDLNRALTQSNAEWRQYGFVISHHMQEPVRLISQFAELLTRQPRAQDGSPDSPQTERITGFLLRETSRLRSLTQDLHTYTALLSAPPPVRRPTPLGRVVDDVLQDLEPRIADTGASIEVAPELPVIAADAGLLRDLLLHLIGNALTFGGPEPRIAVRTERQGAGWSIAVSDQGAGIAPEYQERIFLLFQRLGSLDEALGNGLGLPLCRKIAELHGGTLTVESAPGEGSTFRCWLPDAGPLPGAADA
modifications: biliverdin IXα covalently linked to a conserved cysteine (holoprotein)
notes: Deinococcus radiodurans strain R1 bacteriophytochrome DrBphP, full length; source: E. coli BL21 (DE3), purified (Ni-NTA, SEC)
For B1, the binding result in series [1] and in series [2] was “binds” each time.
